± gives the uncertainty stated by the source.
assay: amyloid nucleation score (Sup35N fusion, yeast selection) (log enrichment); library NNK1; higher = more nucleation; inactive = no reads after selection
Outline: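 Random libraries were run with three technical output replicates. In each, psi-negative yeast expressing Sup35N fused to peptides of 20 random codons were induced 24 hours with 100 μM copper sulfate and grown 7 days at 30°C on medium lacking adenine and uracil, and input and output plasmid inserts were Illumina-sequenced. The nucleation score is the DiMSum log enrichment of output over input reads, centred on the mode score of non-aggregating sequences, and sequences under 100 input reads were excluded.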

Substance | amyloid nucleation score
CFLIVHLNSRSDTCHEGSEC | -0.081 ± 0.54
CFLVGSWTPI | 0.215 ± 0.76
CFPTWYLLLDCWVQFPAHTK | 2.56 ± 0.16
CFSDKS | -0.621 ± 0.42
CFVHLLGIIYLSLDRNYCRE | 0.272 ± 0.57
CGAVHGGGWSAIYLNGYLGW | 0.186 ± 0.95
CGFVEMTSRSKIHSLICWPG | 1.53 ± 0.44
CGGYSTTCSLTWEILASNRL | 0.675 ± 1
CHRRMMNEWSGLKNVLFKKG | 0.791 ± 0.97
CHSHDVCRGMLT | -0.135 ± 0.38
CIDMFNLLNLKHASYWVVVY | -0.563 ± 0.52
CIEDVCCS | -0.016 ± 0.23
CILAGGSSVGLNCVGMSTCG | 0.438 ± 0.8
CIRREFSHDESDVNRSTWFI | 0.391 ± 0.71
CISGD | 0.429 ± 0.37
CIWSSNLFSRSSTSDWRLDT | -0.109 ± 0.29
CKKELFKT | 0.77 ± 0.66
CKMWTE | 0.405 ± 0.75
CKTGGFYRSVGRTTRFCHVE | -0.321 ± 0.39
CLAGGYSGNAEGMIIETRAK | -0.171 ± 1.7
CLCDAISYSGIIKDVDKVCE | 0.875 ± 0.93
CLCMSC | 0.108 ± 0.43

Substance | amyloid nucleation score
CLDNWLGGHNSLSSYSG | 0.538 ± 0.37
CLFWDSCYRKLLTIYDNM | -0.941 ± 0.63
CLGDTWWNMNKSGTEVVCPV | 0.858 ± 1.1
CLISP | inactive
CLMLAGRFIC | -0.422 ± 0.56
CLNSDALDHW | 1.17 ± 0.42
CLNTMWRKPVEAREM | 0.189 ± 1
CLPQLTDQPPKFHRLQFFCV | 0.348 ± 0.4
CLRGLNAPLYNRCFAGILLG | -0.6 ± 0.36
CLSNM | inactive
CLVFWETECSA | -0.323 ± 0.29
CLVYSTYIDGQTLAKTF | -0.761 ± 1.2
CLYAIKLCM | 6.82 ± 0.043
CMAGRNSFKLYMRRFNEENY | inactive
CMRFAPMMHANCHVKARWHR | 0.696 ± 0.6
CMRHHMSQHCIPGGPRCRGA | -0.912 ± 0.65
CMSIRWSCYPLNNQVVATEV | 0.044 ± 0.29
CMSRSYYYTSPKDPKEFNC | 0.56 ± 0.33
CNFMVSYRISFMLRLIQYYV | -0.938 ± 0.31
CNKNNCWCYHCSYQVWHALY | 0.381 ± 0.42
CNLNAGGKRWADRT | 0.3 ± 0.85
CNSFCGMHCGNV | 0.238 ± 0.62

Substance | amyloid nucleation score
CNSRNITT | -0.345 ± 0.67
CNSVDVVLISATACYSWSTL | 0.552 ± 0.48
CNYWRNRRWF | 1.48 ± 0.33
CPDLGYACWYIINRIPSTWC | -1.3 ± 1.2
CPGNIIYTFPIDVPKHG | 0.641 ± 0.79
CPLEDLIKRLNHLYVH | 0.21 ± 0.6
CPVCNTESTCRYPRVGKWDT | 3.01 ± 0.17
CQPLLSMYLVHYTA | 0.116 ± 0.2
CQSLPKFLHANVKYNSVSGA | -0.16 ± 0.24
CRAQGFDASSHYCYLFLALS | -0.427 ± 1.4
CRGNDKVLPKIGATNCWLST | inactive
CRIIPLYRKFLKHLTCHYIQ | -0.092 ± 0.25
CRISTGNGVI | inactive
CRLGNEKGRLKSWQNRSNIC | -0.22 ± 0.59
CRLSNGV | -0.392 ± 0.31
CRMGMLYEISQC | 0.743 ± 0.76
CRSSVFKYVPVSNIFDYFSI | 0.921 ± 0.84
CRSVVGVGSCRTGPEEGVYP | -0.106 ± 1.7
CRTHDKCKDSGHSRLNGYSG | -0.299 ± 0.51
CSCACCVELHQL | 6.611 ± 0.062
CSDFITLSMFV | 0.99 ± 0.66
CSFLELLWDVGRCSASQQCM | -0.943 ± 1.7

Substance | amyloid nucleation score
CSLSSRNDLGCIMVLLYAWI | 0.605 ± 0.33
CSLTCVSWHMGSF | 2.15 ± 0.32
CSRANRKGECG | -0.62 ± 1.3
CSRTRRSHSIECACCKYIFA | -0.343 ± 0.47
CSRVVWLVIRLLEMWIEPRA | 0.815 ± 0.73
CSSMQFVACLNSAYGSSTAM | 0.027 ± 0.76
CSTRGFGGD | -0.921 ± 1.1
CSYGARGIWATESIVANKSV | inactive
CSYPYGQSEDCGSRSGRGYA | 0.877 ± 1
CTADWLRDPRVGVRGPEGGG | 0.273 ± 0.3
CTAWNVS | -0.657 ± 1.7
CTAYYMLGGGRNLNHPLMWV | 0.497 ± 0.61
CTDVNSQ | 0.033 ± 0.9
CTFTY | 0.053 ± 1.1
CTGIWSLLSCTTFRHIATVV | -0.469 ± 1.7
CTGPMD | 0.055 ± 0.57
CTGSCVRRVCGGFIEADIRY | -0.28 ± 0.41
CTLSYCWWMAQYPDISRLIT | -0.362 ± 0.74
CTSDHSSFAKFLLLTCCLLL | 0.841 ± 0.92
CTTLGLQPFRDWRFAGKLAR | 0.049 ± 1.1
CTYVLWRGMKGFR | 0.05 ± 0.88

From the supplement of paper PMC12042874
